Test system: Saccharomyces cerevisiae PS128 hsf1 delta, HSF1(1-493) fusion
Assay: growth estimate (transactivation domain function in HSF1 fusion, heat-shock survival) (a.u. (slope of normalised read count over time)); higher = stronger growth at 37°C, i.e. more transactivation activity
Settings: library: design library
Procedure, shortened: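 Transactivation-domain oligos were designed and fused to a truncated yeast HSF1 (amino acids 1–493), then expressed in a yeast strain lacking hsf1. Replica plating onto –trp 5-FOA plates was followed by incubation at 30°C or 37°C for 0, 2, 4, 6 and 8 days. Inserts were amplified by PCR and sequenced on an Illumina MiSeq as six barcoded replicates from a single experiment. The growth estimate is the slope of a robust linear fit over time of read counts normalised to sample totals and to starting count.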

Sequence	growth estimate
DFDLDMLGDFDLDMPG	17.2
DFDLDMLGDFDLDMRG	6.95
DFDLDMLGDFDLDPLG	9.65
DFDLDMLGDFDLDRLG	0.414
DFDLDMLGDFDLGMLG	0.517
DFDLDMLGDFDLKMLG	-0.116
DFDLDMLGDFDLPMLG	1.24
DFDLDMLGDFDLRMLG	0.112
DFDLDMLGDFDPDMLG	10.6
DFDLDMLGDFDRDMLG	0.584
DFDLDMLGDFKLDMLG	0.503
DFDLDMLGDFPLDMLG	1.65
DFDLDMLGDFRLDMLG	0.535
DFDLDMLGDGDLDMLG	-0.147
DFDLDMLGDKDLDMLG	-0.188
DFDLDMLGDPDLDMLG	10.1
DFDLDMLGGFDLDMLG	2.09
DFDLDMLGKFDLDMLG	1.77
DFDLDMLGRFDLDMLG	1.8
DFDLDMLKDFDLDMLG	2.58
DFDLDMLPDFDLDMLG	0.485
DFDLDMLRDFDLDMLG	11.1
DFDLDMPGDFDLDMLG	6.81
DFDLDMRGDFDLDMLG	1.6

Sequence	growth estimate
DFDLDPLGDFDLDMLG	2.12
DFDLDRLGDFDLDMLG	4.07
DFDLGMLGDFDLDMLG	12.4
DFDLKMLGDFDLDMLG	3.04
DFDLPMLGDFDLDMLG	5.28
DFDLRMLGDFDLDMLG	6.25
DFDPDMLGDFDLDMLG	7.23
DFDRDMLGDFDLDMLG	1.31
DFGLDMLGDFDLDMLG	2.44
DFKLDMLGDFDLDMLG	5.13
DFPLDMLGDFDLDMLG	3.12
DFRLDMLGDFDLDMLG	10.1
DGDESWDYIFETTE	-0.219
DGDLDMLGDFDLDMLG	0.418
DGLSWIIELLEKDG	-0.173
DKDESWDYIFETTE	-0.235
DKDLDMLGDFDLDMLG	-0.127
DKLSWIIELLEKDG	< -0.25
DLAESWDYIFETTE	0.371
DLDASWDYIFETTE	0.507
DLDEAWDYIFETTE	1.45
DLDEGWDYIFETTE	0.787
DLDEKWDYIFETTE	< -0.25
DLDEPWDYIFETTE	1.58

Sequence	growth estimate
DLDESADYIFETTE	-0.127
DLDESGDYIFETTE	-0.129
DLDESRDYIFETTE	-0.153
DLDESWAYIFETTE	0.283
DLDESWDAIFETTE	< -0.25
DLDESWDGIFETTE	0.5
DLDESWDKIFETTE	-0.06
DLDESWDRIFETTE	< -0.25
DLDESWDYAFETTE	< -0.25
DLDESWDYIAETTE	-0.174
DLDESWDYIFATTE	1.5
DLDESWDYIFEATE	2.47
DLDESWDYIFEGTE	1.27
DLDESWDYIFEKTE	-0.233
DLDESWDYIFEPTE	1.97
DLDESWDYIFERTE	0.415
DLDESWDYIFETAE	1.08
DLDESWDYIFETGE	1.44
DLDESWDYIFETPE	0.951
DLDESWDYIFETRE	0.311
DLDESWDYIFETTA	0.992
DLDESWDYIFETTE	1.92
DLDESWDYIFETTG	2.74
DLDESWDYIFETTK	-0.0269

Sequence	growth estimate
DLDESWDYIFETTP	3.58
DLDESWDYIFETTR	1.15
DLDESWDYIFGTTE	0.717
DLDESWDYIFKTTE	0.154
DLDESWDYIFPTTE	0.0438
DLDESWDYIFRTTE	0.833
DLDESWDYIGETTE	-0.243
DLDESWDYIPETTE	< -0.25
DLDESWDYKFETTE	-0.178
DLDESWDYRFETTE	-0.247
DLDESWGYIFETTE	0.0335
DLDESWKYIFETTE	-0.0397
DLDESWPYIFETTE	-0.161
DLDESWRYIFETTE	0.0438
DLDGSWDYIFETTE	0.41
DLDKSWDYIFETTE	-0.196
DLDPSWDYIFETTE	0.39
DLDRSWDYIFETTE	-0.214
DLGESWDYIFETTE	0.355
DLPESWDYIFETTE	-0.108
DLRESWDYIFETTE	-0.213
DPDESWDYIFETTE	0.0829
DPDLDMLGDFDLDMLG	4.23
DPLSWIIELLEKDG	-0.102

— the supplement of paper PMC5949888
